From PMC3893532

Experiment: confocal immunofluorescence, transfected hippocampal neurons
Conditions: glycan lost; control: wild-type seipin

B1: seipin: N88S (protein)
parent chain: MVNDPPVPALLWAQEVGQVLAGRARRLLLQFGVLFCTILLLLWVSVFLYGSFYYSYMPTVSHLSPVHFYYRTDCDSSTTSLCSFPVANVSLTKGGRDRVLMYGQPYRVTLELELPESPVNQDLGMFLVTISCYTRGGRIISTSSRSVMLHYRSDLLQMLDTLVFSSLLLFGFAEQKQLLEVELYADYRENSYVPTTGAIIEIHSKRIQLYGAYLRIHAHFTGLRYLLYNFPMTCAFIGVASNFTFLSVIVLFSYMQWVWGGIWPRHRFSLQVNIRKRDNSRKEVQRRISAHQPGPEGQEESTPQSDVTEDGESPEDPSGTEGQLSEEEKPDQQPLSGEEELEPEASDGSGSWEDAALLTEANLPAPAPASASAPVLETLGSSEPAGGALRQRPTCSSS
  localisation_or_trafficking: changes

B2: seipin: S90L (protein)
parent chain: B1 parent chain
  localisation_or_trafficking: changes
